The target of data set [1] is Glucoamylase PE001: variant of the Penicillium oxalicum glucoamylase having a K79V substitution (Penicillium oxalicum). Description: cell-based or functional assay.
Data set [2] deals with wild type Penicillium oxalicum glucoamylase (Penicillium oxalicum). Description: cell-based or functional assay.
Data set [3] deals with T1, wild type Penicillium oxalicum glucoamylase.
T1 sequence: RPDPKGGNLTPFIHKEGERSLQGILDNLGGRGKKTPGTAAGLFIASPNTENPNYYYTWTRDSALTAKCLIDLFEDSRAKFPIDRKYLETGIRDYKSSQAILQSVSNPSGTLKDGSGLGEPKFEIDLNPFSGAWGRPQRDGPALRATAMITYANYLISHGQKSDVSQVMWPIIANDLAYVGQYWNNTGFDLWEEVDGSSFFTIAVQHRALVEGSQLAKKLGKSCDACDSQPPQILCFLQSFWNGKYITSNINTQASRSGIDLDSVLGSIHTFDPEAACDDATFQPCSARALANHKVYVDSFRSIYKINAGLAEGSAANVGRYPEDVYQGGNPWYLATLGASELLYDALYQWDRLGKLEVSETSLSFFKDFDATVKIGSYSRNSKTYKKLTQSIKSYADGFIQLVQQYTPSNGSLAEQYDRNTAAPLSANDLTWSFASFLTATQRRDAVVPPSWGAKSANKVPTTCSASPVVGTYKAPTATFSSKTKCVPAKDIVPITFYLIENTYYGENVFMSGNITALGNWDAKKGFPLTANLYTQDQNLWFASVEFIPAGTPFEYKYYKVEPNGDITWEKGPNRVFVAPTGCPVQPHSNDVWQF

Consider aorsin (enzyme), for which the intact glucoamylase (ca. 70 kDa), SDS-PAGE after protease treatment overnight at 4 °C in data set [1] was determined as 100%; in data set [2], 40%. Moreover, the intact glucoamylase (ca. 70 kDa), SDS-PAGE after protease treatment overnight at 32 °C in data set [1] is 100%; in data set [2] it was 10%.
aspergillopepsin I: the “cleaved glucoamylase (ca. 60 kDa), SDS-PAGE after protease treatment overnight at 32 °C” value in data set [3] is given as 10%.
For the substance aspergillopepsin I (enzyme), in data set [1], the intact glucoamylase (ca. 70 kDa), SDS-PAGE after protease treatment overnight at 4 °C was determined as 100% and the intact glucoamylase (ca. 70 kDa), SDS-PAGE after protease treatment overnight at 32 °C came to 100%. Further, in data set [2], the intact glucoamylase (ca. 70 kDa), SDS-PAGE after protease treatment overnight at 4 °C is 100% and the intact glucoamylase (ca. 70 kDa), SDS-PAGE after protease treatment overnight at 32 °C worked out at 90%.
For the substance aorsin, in data set [3], the “cleaved glucoamylase (ca. 60 kDa), SDS-PAGE after protease treatment overnight at 4 °C” value came to 60% and the “cleaved glucoamylase (ca. 60 kDa), SDS-PAGE after protease treatment overnight at 32 °C” value was found to be 90%.

Source of the values: patent US20200095615A1.
